Measurements taken from US12534748B2, “Engineered beta-subunit of tryptophan synthase for production of non-canonical amino acids” (California Institute of Technology, priority 2015, dated 2026).
Residue numbers refer to the chain shown, from its start. Names may count otherwise.

Key:
[1] = substrate: N[C@@H](CO)C(=O)O; experiment: Tryptophan formation from L-serine and indole, kinetics of wild-type PfTrpB; format: biochemical, Pyrococcus furiosus; details: other: 75° C., pH 8.0
Procedure: (§1) Cloning, Expression, and Purification of PfTrpA and PfTrpB. The genes encoding PfTrpB (UNIPROT ID Q8U093) and PfTrpA (UNIPROT ID Q8U094) were obtained as gBlocks and cloned into pET22(b)+ for expression in E. coli BL21 E. cloni EXPRESS cells (Lucigen). Heterologous protein expression of PfTrpA and PfTrpB was performed in Terrific Broth with 100 μg/mL ampicillin (TBamp) and induced with 500 mM IPTG (final concentration 1 mM). PfTrpB was purified via a HisTrap HP column. PfTrpA was purified via a Q HP HiTrap column (flow-through), followed by ammonium sulfate precipitation, and hydrophobic interaction chromatography on a phenyl Sepharose HP HiTrap column (FIG. 3).
(§2) Kinetics and UV-Vis Spectroscopy. Data were collected between 550 and 250 nm on a UV1800 Shimadzu spectrophotometer (Shimadzu) using 0.25-20 μM of enzyme in 200 mM potassium phosphate (pH 8.0) in a quartz cuvette. Samples were incubated at 75° C. for >3 min to ensure a stable temperature was reached. PfTrpB activity (kcat) was measured by monitoring tryptophan formation at 290 nm using Δe290=1.89 mM^−1·cm^−1.
(§3) Selection of the Parent Enzyme, TrpB, from Pyrococcus furiosus. […]

[2] = substrate: c1ccc2[nH]ccc2c1; experiment: as above; format: biochemical, Pyrococcus furiosus; details: other: 75° C., pH 8.0
Procedure: as §1, §2, §3

[3] = substrate: c1ccc2[nH]ccc2c1; experiment: purified protein, by the assay type; details: pH 8.0
[4] = substrate: N[C@@H](CO)C(=O)O; experiment: Tryptophan formation from L-serine and indole, kinetics of PfTrpB^4D11; format: biochemical, Pyrococcus furiosus; details: other: 75° C., pH 8.0
[5] = substrate: N[C@@H](CO)C(=O)O; experiment: Tryptophan formation from L-serine and indole, kinetics of PfTrpS complex; format: biochemical, Pyrococcus furiosus; details: other: 75° C., pH 8.0
[6] = substrate: N[C@@H](CO)C(=O)O; experiment: purified protein, by the assay type; details: other: 75° C., pH 8.0
[7] = substrate: N[C@@H](CO)C(=O)O; experiment: Tryptophan formation from L-serine and indole, kinetics of PfTrpB^2G9; format: biochemical, Pyrococcus furiosus; details: other: 75° C., pH 8.0

B1: Pyrococcus furiosus tryptophan synthase beta-subunit PfTrpB, wild type, SEQ ID NO: 2 (Pyrococcus furiosus DSM 3638) (protein)
chain: MWFGEFGGQYVPETLIEPLKELEKAYKRFKDDEEFNRQLNYYLKTWAGRPTPLYYAKRLTEKIGGAKIYLKREDLVHGGAHKTNNAIGQALLAKFMGKTRLIAETGAGQHGVATAMAGALLGMKVDIYMGAEDVERQKMNVFRMKLLGANVIPVNSGSRTLKDAINEALRDWVATFEYTHYLIGSVVGPHPYPTIVRDFQSVIGREAKAQILEAEGQLPDVIVACVGGGSNAMGIFYPFVNDKKVKLVGVEAGGKGLESGKHSASLNAGQVGVFHGMLSYFLQDEEGQIKPTHSIAPGLDYPGVGPEHAYLKKIQRAEYVTVTDEEALKAFHELSRTEGIIPALESAHAVAYAMKLAKEMSRDEIIIVNLSGRGDKDLDIVLKVSGNVLEHHHHHH
- Km [1]: 1200 ± 100 µM
- Km [2]: 77 ± 12 µM

B2: Pyrococcus furiosus TrpB variant M144T N166D (Table 6 prints N166T), SEQ ID NO: 20 (Pyrococcus furiosus DSM 3638; M144T/N166D) (protein)
chain: B1 chain with M144T, N166D
- Km ([3]; other: 75° C.): 42 µM

B3: Pyrococcus furiosus TrpB variant PfTrpB^4D11 (E17G, I68V, T292S, F274S, T321A), SEQ ID NO: 16 (Pyrococcus furiosus DSM 3638; E17G/F274S/I68V/T292S/T321A) (protein)
chain: B1 chain with E17G, I68V, F274S, T292S, T321A
- Km [4]: 1200 µM

B4: Pyrococcus furiosus tryptophan synthase complex PfTrpS (PfTrpA + PfTrpB) (Pyrococcus furiosus DSM 3638) (protein)
chain: B1 chain
- Km [5]: 600 µM

B5: Pyrococcus furiosus TrpB variant PfTrpB^0B2 (P12L, E17G, I68V, T292S, F274S, T321A), SEQ ID NO: 12 (Pyrococcus furiosus DSM 3638; … (protein)
chain: B1 chain with P12L, E17G, I68V, F274S, T292S, T321A
- Km [6]: 700 µM
- Km ([3]; other: 75° C.): 8.7 µM

B6: Pyrococcus furiosus TrpB variant PfTrpB^2G9 (T292S), SEQ ID NO: 10 (Pyrococcus furiosus DSM 3638; T292S) (protein)
chain: B1 chain with T292S
- Km [7]: 840 µM

B7: Thermotoga maritima TrpB variant TmTrpB^0B2 (P14L, P19G, I69V, L274S, T292S) (Thermotoga maritima MSB8; I69V/L274S/P14L/P19G/T292S) (protein)
chain: MKGYFGPYGGQYVLEILMGALEELEAAYEEIMKDESFWKEFNDLLRDYAGRPTPLYFARRLSEKYGARVYLKREDLLHTGAHKINNAIGQVLLAKKMGKTRIIAETGAGQHGVATATAAALFGMECVIYMGEEDTIRQKPNVERMKLLGAKVVPVKSGSRTLKDAINEALRDWITNLQTTYYVIGSVVGPHPYPIIVRNFQKVIGEETKKQILEKEGRLPDYIVACVGGGSNAAGIFYPFIDSGVKLIGVEAGGEGLETGKHAASLLKGKIGYSHGSKTFVLQDDWGQVQVSHSVSAGLDYSGVGPEHAYWRETGKVLYDAVTDEEALDAFIELSRLEGIIPALESSHALAYLKKINIKGKVVVVNLSGRGDKDLESVLNHPYVRERIRLEHHHHHH
- Km ([3]; other: 75° C.): 72 µM

B8: Archaeoglobus fulgidus TrpB variant AfTrpB^0B2 (P25L, E30G, I80V, F285S, T303S, T332A), SEQ ID NO: 22 (Archaeoglobus fulgidus DSM 4304; … (protein)
chain: MRCWLENLSGGRKMKFGEFGGRFVLEVLIGPLEELEKAYDRFKDDEEFKARLEYYLKSYAGRPTPLYFAENLSRELGVKVYLKREDLLHGGAHKINNTIGQALLAKFMGKKRVIAETGAGQHGVATAMAAALLGLEAEIYMGAEDYERQKMNVFRMELLGAKVTAVESGSRTLKDAINEALRDWVESFEHTHYLIGSVVGPHPFPTIVRDFQAVIGKEARRQIIEAEGGMPDAIIACVGGGSNAMGIFHPFLNDDVRLIGVEAGGEGIESGRHSASLTAGSKGVSHGMLSYFLQDEEGMMLDSHSVSAGLDYPGVGPEHAYLKETGRCEYVAVNDEEALRAFKTLSKLEGIIPALESAHAIAYAMKMAEEMQRDDVLVVNLSGRGDKDMDIVRRRLALEHHHHHH
- Km ([3]; other: 60° C.): 4.8 µM
